Our source for the protein stability index values is the supplement of paper PMC10567573.

B1: NET1 (parent)
chain: PTPAKRRSSALWSEMLDITMKESL
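Further: lentivirally expressed fusions sorted by FACS into six bins by GFP to DsRed ratio, PSI derived from sequencing read proportions per bin multiplied by bin number.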

Variants of B1 are the subject of this data set. As to the kind of experiment: protein stability index of a GFP-peptide fusion (GPS, HEK-293T) (PSI 1-6); higher = more stable. The note with it: c terminus: a fixed tail appended.
As for PTPAKRRSSALWSEMLDITTKESL [M20T], the protein stability index was 2.76.

As for PTPAKRRSSALWSEMLDITAKESL [M20A], the protein stability index is 2.24.

In the case of PTPAKRRSSALWSEMLDITVKESL [M20V], the protein stability index turned out to be 2.73.

For the variant PTPAKRRSSALWSEMLDITDKESL [M20D], the protein stability index came to 2.58.

PTPAKRRSSALWSEMLDITIKESL [M20I]: the protein stability index turned out to be 2.09.

As for PTPAKRRSSALWSEMLDITWKESL [M20W], the protein stability index is 1.72.

For PTPAKRRSSALWSRMLDITMKESL [E14R], the protein stability index is 2.43.

Turning to PTPAKRRSSALWSLMLDITMKESL [E14L], the protein stability index was determined as 1.5.

Regarding PTPAKRRSSALWSYMLDITMKESL [E14Y], the protein stability index is 2.2.

Regarding PTPAKRRSSALWSPMLDITMKESL [E14P], the protein stability index worked out at 3.15.

In the case of PTPAKRRSSALWSIMLDITMKESL [E14I], the protein stability index stood at 3.13.

Turning to PTPAKRRSSALWSVMLDITMKESL [E14V], the protein stability index amounted to 1.25.

With PTPAKRRSSALWSHMLDITMKESL [E14H], the protein stability index was 2.2.

As for PTPAKRRSSALWSAMLDITMKESL [E14A], the protein stability index is 1.55.

PTPAKRRSSALWSDMLDITMKESL [E14D]: the protein stability index worked out at 2.75.

As to PTPAKRRSSALWSNMLDITMKESL [E14N], the protein stability index stood at 2.11.

For PTPAKRRSSALWSTMLDITMKESL [E14T], the protein stability index was 1.93.

Turning to PTPAKRRSSALWSWMLDITMKESL [E14W], the protein stability index turned out to be 1.69.

Turning to PTPAKRRSSALWSCMLDITMKESL [E14C], the protein stability index is 1.15.

Regarding PTPAKRRSSALWSSMLDITMKESL [E14S], the protein stability index was found to be 2.35.

Turning to PTPAKRRSSALWSKMLDITMKESL [E14K], the protein stability index is 2.87.

For PTPAKRRSSALWSFMLDITMKESL [E14F], the protein stability index is 1.58.

Regarding PTPAKRRSSALWNEMLDITMKESL [S13N], the protein stability index was 2.49.

In the case of PTPAKRRSSALWHEMLDITMKESL [S13H], the protein stability index amounted to 2.88.

As to PTPAKRRSSALWGEMLDITMKESL [S13G], the protein stability index is 2.86.

On to PTPAKRRSSALWMEMLDITMKESL [S13M], for which the protein stability index came to 2.64.

With PTPAKRRSSALWFEMLDITMKESL [S13F], the protein stability index was 1.75.

As for PTPAKRRSSALWIEMLDITMKESL [S13I], the protein stability index worked out at 2.13.

Turning to PTPAKRRSSALWYEMLDITMKESL [S13Y], the protein stability index amounted to 2.09.

On to PTPAKRRSSALWQEMLDITMKESL [S13Q], for which the protein stability index stood at 1.12.

For PTPAKRRSSALWAEMLDITMKESL [S13A], the protein stability index amounted to 1.42.

Turning to PTPAKRRSSALWPEMLDITMKESL [S13P], the protein stability index is 2.71.

For the variant PTPAKRRSSALWKEMLDITMKESL [S13K], the protein stability index came out at 2.34.

For the variant PTPAKRRSSALWDEMLDITMKESL [S13D], the protein stability index is 3.58.

Regarding PTPAKRRSSALWWEMLDITMKESL [S13W], the protein stability index stood at 3.21.

Consider PTPAKRRSSALWREMLDITMKESL [S13R], for which the protein stability index amounted to 2.42.

In the case of PTPAKRRSSALWSEGLDITMKESL [M15G], the protein stability index is 3.83.

With PTPAKRRSSALWSENLDITMKESL [M15N], the protein stability index came out at 3.13.

As to PTPAKRRSSALWSELLDITMKESL [M15L], the protein stability index stood at 2.91.

As for PTPAKRRSSALWSEELDITMKESL [M15E], the protein stability index was 4.77.

For the variant PTPAKRRSSALWSEFLDITMKESL [M15F], the protein stability index turned out to be 2.04.

As to PTPAKRRSSALWSEKLDITMKESL [M15K], the protein stability index came out at 2.82.

For the variant PTPAKRRSSALWSEDLDITMKESL [M15D], the protein stability index is 3.91.

For PTPAKRRSSALWSEVLDITMKESL [M15V], the protein stability index is 2.9.

With PTPAKRRSSALWSEHLDITMKESL [M15H], the protein stability index is 2.38.

Take PTPAKRRSSALWSEQLDITMKESL [M15Q]: the protein stability index was 3.

Take PTPAKRRSSALWSEWLDITMKESL [M15W]: the protein stability index was determined as 2.05.

For PTPAKRRSSALWSEILDITMKESL [M15I], the protein stability index is 2.07.

Regarding PTPAKRRSSALWSECLDITMKESL [M15C], the protein stability index was 2.38.

As for PTPAKRRSSALWSEYLDITMKESL [M15Y], the protein stability index stood at 1.96.

As for PTPAKRRSSALWSEPLDITMKESL [M15P], the protein stability index was determined as 4.32.

Take PTPAKRRSSALWSEMFDITMKESL [L16F]: the protein stability index came to 2.1.

On to PTPAKRRSSALWSEMNDITMKESL [L16N], for which the protein stability index turned out to be 3.84.

Take PTPAKRRSSALWSEMHDITMKESL [L16H]: the protein stability index stood at 2.85.

As to PTPAKRRSSALWSEMYDITMKESL [L16Y], the protein stability index was found to be 2.19.

As for PTPAKRRSSALWSEMQDITMKESL [L16Q], the protein stability index was 2.92.

Regarding PTPAKRRSSALWSEMTDITMKESL [L16T], the protein stability index came to 2.85.

Take PTPAKRRSSALWSEMEDITMKESL [L16E]: the protein stability index was 3.67.

With PTPAKRRSSALWSEMSDITMKESL [L16S], the protein stability index was 3.17.

In the case of PTPAKRRSSALWSEMADITMKESL [L16A], the protein stability index came out at 2.59.

In the case of PTPAKRRSSALWSEMIDITMKESL [L16I], the protein stability index was 2.84.

In the case of PTPAKRRSSALWSEMGDITMKESL [L16G], the protein stability index was 2.33.

With PTPAKRRSSALWSEMMDITMKESL [L16M], the protein stability index amounted to 2.2.

Consider PTPAKRRSSALWSEMPDITMKESL [L16P], for which the protein stability index was 2.38.

As to PTPAKRRSSALWSEMLDITMKPSL [E22P], the protein stability index stood at 1.72.

Take PTPAKRRSSALWSEMLDITMKNSL [E22N]: the protein stability index came to 2.19.

Turning to PTPAKRRSSALWSEMLDITMKQSL [E22Q], the protein stability index was 2.57.

As for PTPAKRRSSALWSEMLDITMKWSL [E22W], the protein stability index was 3.09.

As for PTPAKRRSSALWSEMLDITMKMSL [E22M], the protein stability index was 2.6.

As to PTPAKRRSSALWSEMLDITMKYSL [E22Y], the protein stability index came out at 2.82.

With PTPAKRRSSALWSEMLDITMKRSL [E22R], the protein stability index came to 3.35.

As to PTPAKRRSSALWSEMLDITMKHSL [E22H], the protein stability index stood at 1.5.

Turning to PTPAKRRSSALWSEMLDITMKGSL [E22G], the protein stability index was determined as 1.96.

On to PTPAKRRSSALWSEMLDITMKASL [E22A], for which the protein stability index is 1.

With PTPAKRRSSALWSEMLDITMKSSL [E22S], the protein stability index was 2.56.

For the variant PTPAKRRSSALWSEMLDITMKFSL [E22F], the protein stability index is 3.11.

PTPAKRRSSALWSEMLDITMKDSL [E22D]: the protein stability index stood at 2.1.

For PTPAKRRSSALWSEMLDITMKKSL [E22K], the protein stability index amounted to 1.48.

As to PTPAKRRSSALWSEMLDITMKTSL [E22T], the protein stability index is 3.06.

With PTPAKRRSSALWSEMLDITMKCSL [E22C], the protein stability index came out at 1.52.

In the case of PTPAKRRSSALWSEMLDFTMKESL [I18F], the protein stability index is 2.46.

In the case of PTPAKRRSSALWSEMLDDTMKESL [I18D], the protein stability index is 3.39.

On to PTPAKRRSSALWSEMLDWTMKESL [I18W], for which the protein stability index turned out to be 1.91.

As for PTPAKRRSSALWSEMLDETMKESL [I18E], the protein stability index is 2.9.

Turning to PTPAKRRSSALWSEMLDVTMKESL [I18V], the protein stability index was determined as 3.12.

Turning to PTPAKRRSSALWSEMLDCTMKESL [I18C], the protein stability index was 2.

In the case of PTPAKRRSSALWSEMLDSTMKESL [I18S], the protein stability index is 2.77.

On to PTPAKRRSSALWSEMLDYTMKESL [I18Y], for which the protein stability index worked out at 2.97.

Take PTPAKRRSSALWSEMLDHTMKESL [I18H]: the protein stability index was 2.53.

Turning to PTPAKRRSSALWSEMLDGTMKESL [I18G], the protein stability index is 3.36.

As for PTPAKRRSSALWSEMLDATMKESL [I18A], the protein stability index turned out to be 2.12.

With PTPAKRRSSALWSEMLDNTMKESL [I18N], the protein stability index was determined as 2.41.

For PTPAKRRSSALWSEMLDTTMKESL [I18T], the protein stability index came to 2.62.

As to PTPAKRRSSALWSEMLDRTMKESL [I18R], the protein stability index was determined as 2.84.
